For orientation: Kd means the equilibrium constant for the complex coming apart.

Our source for the Kd values is paper PMC12708450, “Targeting tumor-infiltrating regulatory T cells: combining CD47 and PD-L1 inhibition via a novel aptamer-siRNA chimera”.

This data set has as its target PD-L1 (recombinant human) (Homo sapiens, UniProt Q9NZQ7 19-238). Nature of the data set: ELONA; 1:1 hyperbolic fit; ELONA: PD-L1 coated in PBS at 4 C overnight; blocked with PBS, 0.1% Tween 20, 1% BSA; wash PBS, 1 mM MgCl2, 0.1% Tween 20, 0.1% BSA; oligo heated 95 C 10 min then on ice 10 min; binding 45 min at room temperature; pH not stated. Particulars: protein: recombinant; label: biotin (ELONA).

Sequence of PD-L1 (recombinant human) (Q9NZQ7 19-238): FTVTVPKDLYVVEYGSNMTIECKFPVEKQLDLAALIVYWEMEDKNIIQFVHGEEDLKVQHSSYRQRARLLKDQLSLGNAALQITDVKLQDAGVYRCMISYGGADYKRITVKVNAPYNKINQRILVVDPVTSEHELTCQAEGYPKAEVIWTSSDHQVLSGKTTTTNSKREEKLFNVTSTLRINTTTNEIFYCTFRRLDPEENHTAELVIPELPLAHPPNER

B1: PD-L1 aptamer (structured_DNA)
DNA: ACCGACCGTGCTGGACTCATCTCGCTTTTTTCACGGTCCACACTACTATGAGCGAGCCTGGCG
Take B1: the Kd turned out to be 108 nM.
